Data set [1] concerns the target T1, ceh-90 (R03E1.4) (Caenorhabditis elegans) (UniProt Q69YW8).
T1 sequence: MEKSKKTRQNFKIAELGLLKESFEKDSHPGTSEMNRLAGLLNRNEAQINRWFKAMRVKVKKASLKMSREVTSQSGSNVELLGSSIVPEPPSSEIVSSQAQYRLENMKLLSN

Data set [2] addresses T2, ceh-18 (ZC64.3) (Caenorhabditis elegans) (UniProt P41934).
T2 sequence: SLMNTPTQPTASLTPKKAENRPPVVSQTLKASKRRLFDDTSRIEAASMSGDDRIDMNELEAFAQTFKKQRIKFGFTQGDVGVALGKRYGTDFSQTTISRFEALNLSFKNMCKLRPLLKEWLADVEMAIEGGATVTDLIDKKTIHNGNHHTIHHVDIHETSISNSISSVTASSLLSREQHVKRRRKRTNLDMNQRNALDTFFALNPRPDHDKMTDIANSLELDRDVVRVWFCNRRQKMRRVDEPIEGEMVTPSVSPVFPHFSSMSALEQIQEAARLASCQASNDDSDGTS

In data set [3] the target is T3, C07E3.6 (C07E3.6) (Caenorhabditis elegans) (UniProt Q17792).
T3 sequence: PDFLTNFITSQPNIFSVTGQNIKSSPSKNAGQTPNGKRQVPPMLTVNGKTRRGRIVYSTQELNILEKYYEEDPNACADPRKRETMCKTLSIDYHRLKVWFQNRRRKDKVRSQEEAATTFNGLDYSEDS

The target of data set [4] is T4, ceh-23 (ZK652.5) (Caenorhabditis elegans) (UniProt P34663).
T4 sequence: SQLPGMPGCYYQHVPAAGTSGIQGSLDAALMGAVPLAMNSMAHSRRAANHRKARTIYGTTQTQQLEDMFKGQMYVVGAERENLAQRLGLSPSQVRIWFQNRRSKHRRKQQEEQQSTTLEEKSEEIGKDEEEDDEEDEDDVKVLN

For data set [5], the target named is T5, eyg-1 (Y53C12C.1) (Caenorhabditis elegans) (UniProt O01996).
T5 sequence: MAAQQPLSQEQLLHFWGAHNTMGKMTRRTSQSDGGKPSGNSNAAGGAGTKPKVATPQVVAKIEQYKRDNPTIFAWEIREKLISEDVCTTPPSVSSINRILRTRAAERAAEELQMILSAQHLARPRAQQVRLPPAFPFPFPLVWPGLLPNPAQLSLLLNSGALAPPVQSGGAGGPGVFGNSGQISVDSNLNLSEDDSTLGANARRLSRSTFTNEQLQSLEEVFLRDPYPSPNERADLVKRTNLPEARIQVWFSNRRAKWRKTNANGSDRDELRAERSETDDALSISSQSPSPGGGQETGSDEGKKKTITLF

In data set [6] the target is T6, ceh-51 (Y80D3A.3) (Caenorhabditis elegans) (UniProt Q9U1R1).
T6 sequence: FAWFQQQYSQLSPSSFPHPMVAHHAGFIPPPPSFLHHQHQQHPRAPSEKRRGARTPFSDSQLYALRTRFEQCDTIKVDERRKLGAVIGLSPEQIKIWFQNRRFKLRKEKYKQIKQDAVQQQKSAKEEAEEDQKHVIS

The target in data set [7] is ceh-36 (C37E2.4) (Caenorhabditis elegans) (UniProt Q93352).
ceh-36 (C37E2.4) (Caenorhabditis elegans), sequence (Q93352 6-165): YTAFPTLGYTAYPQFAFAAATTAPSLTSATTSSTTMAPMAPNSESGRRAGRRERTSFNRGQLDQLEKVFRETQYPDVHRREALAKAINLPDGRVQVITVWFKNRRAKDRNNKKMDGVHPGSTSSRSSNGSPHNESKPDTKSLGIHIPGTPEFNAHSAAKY
The target of data set [8] is ceh-37 (C37E2.5) (Caenorhabditis elegans) (UniProt Q93356).
ceh-37 (C37E2.5) (Caenorhabditis elegans), sequence (Q93356 1-148): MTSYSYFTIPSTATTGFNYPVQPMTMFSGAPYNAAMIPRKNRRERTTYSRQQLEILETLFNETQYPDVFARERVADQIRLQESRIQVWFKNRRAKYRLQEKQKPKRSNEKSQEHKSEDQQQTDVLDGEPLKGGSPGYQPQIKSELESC
Data set [9] concerns ceh-53 (C09G12.1) (Caenorhabditis elegans).
ceh-53 (C09G12.1) (Caenorhabditis elegans), sequence (chain, as listed by the source): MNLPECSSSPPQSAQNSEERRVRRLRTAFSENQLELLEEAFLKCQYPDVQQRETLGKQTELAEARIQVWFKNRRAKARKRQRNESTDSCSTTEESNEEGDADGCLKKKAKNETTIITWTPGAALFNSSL

Sequence “AAGTTTTA (double strand) [8-mer AAGTTTTA]” showed a binding signal (PBM E-score (-0.5 to 0.5)) in data set [1] of 0.492. “AATATGCA (double strand) [8-mer AATATGCA]”: in [2], the binding signal (PBM E-score (-0.5 to 0.5)) is 0.482. On the same count and under the same terms, then “AATATTCA (double strand) [8-mer AATATTCA]”, with 0.477. On the same count and under the same terms, next, “AATTATGC (double strand) [8-mer AATTATGC]”: 0.484. Turning to “ACTAAAAC (double strand) [8-mer ACTAAAAC]”, the binding signal (PBM E-score (-0.5 to 0.5)) in data set [1] is 0.487.

Regarding “ACTAATTA (double strand) [8-mer ACTAATTA]”, the binding signal (PBM E-score (-0.5 to 0.5)) in [3] turned out to be 0.498; in data set [4], 0.495; in [5] it was 0.477.

“AGGTTTTA (double strand) [8-mer AGGTTTTA]”: the binding signal (PBM E-score (-0.5 to 0.5)) in data set [1] was determined as 0.496. “AGTTTTAA (double strand) [8-mer AGTTTTAA]”: the binding signal (PBM E-score (-0.5 to 0.5)) in data set [1] is 0.492. Sequence “AGTTTTAG (double strand) [8-mer AGTTTTAG]” returned a binding signal (PBM E-score (-0.5 to 0.5)) in [1] of 0.486. In turn, “ATAAAACC (double strand) [8-mer ATAAAACC]” gave a binding signal (PBM E-score (-0.5 to 0.5)) in data set [1] of 0.495. On to “ATAATTAA (double strand) [8-mer ATAATTAA]”, for which the binding signal (PBM E-score (-0.5 to 0.5)) in [4] was 0.493.

In data set [6], “ATATAATA (double strand) [8-mer ATATAATA]” displayed a binding signal (PBM E-score (-0.5 to 0.5)) of 0.472. In data set [2], “ATATGCAC (double strand) [8-mer ATATGCAC]” had a binding signal (PBM E-score (-0.5 to 0.5)) of 0.477. Same read-out and setting: next, “ATATGCAT (double strand) [8-mer ATATGCAT]”: 0.486.

As for “ATCAATTA (double strand) [8-mer ATCAATTA]”, the binding signal (PBM E-score (-0.5 to 0.5)) in data set [5] is 0.475.

In the case of “ATGAATAA (double strand) [8-mer ATGAATAA]”, the binding signal (PBM E-score (-0.5 to 0.5)) in data set [2] was found to be 0.477. Same read-out and setting: then “ATGCATAA (double strand) [8-mer ATGCATAA]”, with 0.495. In data set [5], “ATGCGCAT (double strand) [8-mer ATGCGCAT]” returned a binding signal (PBM E-score (-0.5 to 0.5)) of 0.475.

“ATTAAAAC (double strand) [8-mer ATTAAAAC]” displayed a binding signal (PBM E-score (-0.5 to 0.5)) in data set [1] of 0.487. In turn, “ATTAAGTG (double strand) [8-mer ATTAAGTG]” displayed a binding signal (PBM E-score (-0.5 to 0.5)) in data set [6] of 0.472. Take “ATTAATAA (double strand) [8-mer ATTAATAA]”: the binding signal (PBM E-score (-0.5 to 0.5)) in [6] worked out at 0.474. The same measure, in the same setting: next, “ATTAATAG (double strand) [8-mer ATTAATAG]”: 0.478; “ATTAATGA (double strand) [8-mer ATTAATGA]”: 0.469.

For “ATTAATTA (double strand) [8-mer ATTAATTA]”, the binding signal (PBM E-score (-0.5 to 0.5)) in data set [3] was found to be 0.495; in [4], 0.495; in data set [6] it was 0.474. As to “ATTAATTG (double strand) [8-mer ATTAATTG]”, the binding signal (PBM E-score (-0.5 to 0.5)) was found to be 0.472 in [6] and 0.478 in [5].

“ATTATGCA (double strand) [8-mer ATTATGCA]” gave a binding signal (PBM E-score (-0.5 to 0.5)) in [2] of 0.496. In the case of “CAATTAAC (double strand) [8-mer CAATTAAC]”, the binding signal (PBM E-score (-0.5 to 0.5)) in data set [3] came to 0.495; in data set [5], 0.476.

As for “CATATGCA (double strand) [8-mer CATATGCA]”, the binding signal (PBM E-score (-0.5 to 0.5)) in [2] came to 0.478.

Sequence “CCAATTAA (double strand) [8-mer CCAATTAA]” had a binding signal (PBM E-score (-0.5 to 0.5)) in [5] of 0.479. “CCTAATTA (double strand) [8-mer CCTAATTA]”: the binding signal (PBM E-score (-0.5 to 0.5)) was determined as 0.496 in data set [3] and 0.495 in data set [4]. In data set [1], “CTAAAACC (double strand) [8-mer CTAAAACC]” had a binding signal (PBM E-score (-0.5 to 0.5)) of 0.493. On to “CTAATTAA (double strand) [8-mer CTAATTAA]”, for which the binding signal (PBM E-score (-0.5 to 0.5)) in data set [3] came to 0.498; in data set [4] it was 0.498; in data set [5] it was 0.489. Consider “CTAATTAG (double strand) [8-mer CTAATTAG]”, for which the binding signal (PBM E-score (-0.5 to 0.5)) in data set [3] was 0.497; in [4] it was 0.495; in data set [5] it was 0.473.

Consider “CTTAAAAC (double strand) [8-mer CTTAAAAC]”, for which, in [1], the binding signal (PBM E-score (-0.5 to 0.5)) is 0.494. Consider “CTTAATTA (double strand) [8-mer CTTAATTA]”, for which the binding signal (PBM E-score (-0.5 to 0.5)) was 0.497 in [3], 0.494 in [4] and 0.482 in data set [5]. The sequence “GAATATTC (double strand) [8-mer GAATATTC]” displayed a binding signal (PBM E-score (-0.5 to 0.5)) in [2] of 0.494.

For the sequence “GATAATTA (double strand) [8-mer GATAATTA]”, the binding signal (PBM E-score (-0.5 to 0.5)) in data set [3] was determined as 0.497; in data set [4], 0.492; in [5], 0.48. Take “GCAATTAA (double strand) [8-mer GCAATTAA]”: in data set [6], the binding signal (PBM E-score (-0.5 to 0.5)) is 0.473. On to “GCACTTAA (double strand) [8-mer GCACTTAA]”, for which the binding signal (PBM E-score (-0.5 to 0.5)) in data set [6] was 0.469. Still for that read-out and setting: next, “GCTATTAA (double strand) [8-mer GCTATTAA]”: 0.467. Take “GGGATTAA (double strand) [8-mer GGGATTAA]”: the binding signal (PBM E-score (-0.5 to 0.5)) in [7] came to 0.494; in data set [8] it was 0.493; in data set [9], 0.496.

As for “GGGGATTA (double strand) [8-mer GGGGATTA]”, the binding signal (PBM E-score (-0.5 to 0.5)) was determined as 0.495 in [7], 0.494 in data set [8] and 0.497 in data set [9]. In turn, “GGGTTTAA (double strand) [8-mer GGGTTTAA]” registered a binding signal (PBM E-score (-0.5 to 0.5)) in data set [1] of 0.487.

Sequence “GGGTTTTA (double strand) [8-mer GGGTTTTA]” came in with a binding signal (PBM E-score (-0.5 to 0.5)) in [1] of 0.498. As for “GGTAATTA (double strand) [8-mer GGTAATTA]”, the binding signal (PBM E-score (-0.5 to 0.5)) in data set [3] is 0.497; in data set [4] it was 0.494. In data set [1], “GGTTTTAA (double strand) [8-mer GGTTTTAA]” showed a binding signal (PBM E-score (-0.5 to 0.5)) of 0.498.

In turn, “GGTTTTTA (double strand) [8-mer GGTTTTTA]” returned a binding signal (PBM E-score (-0.5 to 0.5)) in data set [1] of 0.485. Consider “GTAATTAA (double strand) [8-mer GTAATTAA]”, for which the binding signal (PBM E-score (-0.5 to 0.5)) amounted to 0.497 in [3] and 0.492 in [4]. With “GTAATTAC (double strand) [8-mer GTAATTAC]”, the results for the binding signal (PBM E-score (-0.5 to 0.5)) in [6] and in [5] were 0.478 and 0.482, respectively.

In turn, “GTTAAAAC (double strand) [8-mer GTTAAAAC]” yielded a binding signal (PBM E-score (-0.5 to 0.5)) in data set [1] of 0.492. For “GTTAATTA (double strand) [8-mer GTTAATTA]”, the binding signal (PBM E-score (-0.5 to 0.5)) in data set [3] came to 0.498; in data set [4], 0.497; in data set [5] it was 0.481. For “TAAAACCA (double strand) [8-mer TAAAACCA]”, the binding signal (PBM E-score (-0.5 to 0.5)) in data set [1] was determined as 0.488.

“TAATTAAA (double strand) [8-mer TAATTAAA]”: the binding signal (PBM E-score (-0.5 to 0.5)) in data set [4] was 0.493.

For “TAATTACA (double strand) [8-mer TAATTACA]”, the binding signal (PBM E-score (-0.5 to 0.5)) in data set [6] was 0.467. In data set [2], “TATGCAAA (double strand) [8-mer TATGCAAA]” returned a binding signal (PBM E-score (-0.5 to 0.5)) of 0.486. “TATTAATA (double strand) [8-mer TATTAATA]” had a binding signal (PBM E-score (-0.5 to 0.5)) in [6] of 0.483.

For the sequence “TCAATTAA (double strand) [8-mer TCAATTAA]”, the binding signal (PBM E-score (-0.5 to 0.5)) in [6] worked out at 0.467; in data set [5], 0.48. For “TTAATTAA (double strand) [8-mer TTAATTAA]”, the binding signal (PBM E-score (-0.5 to 0.5)) in data set [3] came to 0.496; in data set [4], 0.497; in data set [5], 0.487.

Values taken from article PMC4434323.
